According to US12540197B2, “Anti-tissue factor antibodies and antibody conjugates, compositions comprising anti-tissue factor antibodies or antibody conjugates, and methods of making and using anti-tissue factor antibodies and antibody conjugates” (SUTRO BIOPHARMA, INC., priority 2023, dated 2026):

Assays:
cynomolgus TF = assay: Biacore off-rate and kinetic binding, cynomolgus TF; details: Table 12; 25° C., 1:1 Langmuir
Description: (§1) Anti-Fc polyclonal antibodies were immobilized onto a CM4 chip (Cytiva #BR100534) using amine coupling chemistry (Human Antibody Capture Kit, Cytiva #BR100839). The immobilization steps were carried out at a flow rate of 25 μL/min in 1×HBS-EP+buffer (Cytiva #BR100669). The sensor surfaces were activated for 7 min with a mixture of N-hydroxysuccinimide (NHS, 0.05 M) and 1-ethyl-3-(3-dimethylaminopropyl)-carbodiimide (EDC, 0.2 M). The anti-Fc polyclonal antibodies were injected over all 4 flow cells at a concentration of 25 μg/mL in 10 mM sodium acetate, pH 4.5, for 7 min. Ethanolamine (1 M, pH 8.5) was injected for 7 min to block any remaining activated groups. Approximately 6,000 response units (RU) of capture antibody was immobilized on each flow cell.
(§2) Off-rate and kinetic binding experiments were performed at 25° C. using 1×HBS-EP+buffer. Antibodies were injected over the anti-Fc surface at a concentration of 3 μg/mL for 12 seconds at a flow rate of 10 μL/min on flow cells 2, 3 and 4, followed by a buffer wash for 30 seconds at the same flow rate. Single point off-rate analysis was carried out using an antigen concentration of 100 nM. […] After capturing ligand (antibody) on the anti-Fc surface, the analyte (human TF, Lake Pharma; cynomolgus TF, Sino Bio #90885-C08H; mouse TF, R&D Systems #3178-PA) was bound for 180 seconds, followed by a 420 second dissociation phase at a flow rate of 50 μL/min. Between each ligand capture and analyte binding cycle, regeneration was carried out using 2 injections of 10 mM glycine pH 2.0 for 30 seconds at 30 μL/min, followed by a 30 second buffer wash step.
(§3) The data were fit with the Biacore T200 Evaluation software, using a 1:1 Langmuir binding model. KD (affinity, nM) was determined as a ratio of the kinetic rate constants calculated from the fits of the association and dissociation phases.
(§4) Anti-Fc polyclonal antibodies were immobilized onto a CM4 chip (Cytiva #BR100534) using amine coupling chemistry (Human Antibody Capture Kit, Cytiva #BR100839). The immobilization steps were carried out at a flow rate of 25 μL/min in 1×HBS-EP+buffer (Cytiva #BR100669). The sensor surfaces were activated for 7 min with a mixture of NHS (0.05 M) and EDC (0.2 M). The Anti-Fc antibodies were injected over all 4 flow cells at a concentration of 25 ug/ml in 10 mM sodium acetate, pH 4.5, for 7 min. Ethanolamine (1 M, pH 8.5) was injected for 7 min to block any remaining activated groups. Approximately 6,000 response units (RU) of capture antibody was immobilized on each flow cell. Off-rate and kinetic binding experiments were performed at 25° C. using 1×HBS-EP+buffer. Antibodies or ADCs were injected over the anti-Fc surface at a concentration of 3 μg/mL for 12 seconds at a flow rate of 10 μL/min on flow cells 2, 3 and 4, followed by a buffer wash for 30 seconds at the same flow rate. […] After capturing ligand (antibody) on the anti-Fc surface, the analyte (human TF, Lake Pharma; cynomolgus TF, Sino Bio #90885-C08H; mouse TF, R&D Systems #3178-PA) was bound for 180 seconds, followed by a 420 second dissociation phase at a flow rate of 50 μL/min. Between each ligand capture and analyte binding cycle, regeneration was carried out using 2 injections of 10 mM Glycine pH 2.0 for 30 seconds at 30 μL/min, followed by a 30 second buffer wash step. The data was fit with the Biacore T200 Evaluation software, using a 1-1 Langmuir binding model. KD (affinity, nM) was determined as a ratio of the kinetic rate constants calculated from the fits of the association and dissociation phases.

[1] = tested on: primary human keratinocytes; assay: ADC cell killing on primary adult human keratinocytes (WST-8); format: cell-based; details: Table 30, 120 hours, read-out: Keratinocyte Killing EC50
Description: To evaluate the cytotoxicity effects of the ADC on the adult primary keratinocytes, a total of 2000 keratinocytes in a volume of 50 microliters were seeded in a 96-well flat bottom cell culture plate coated with keratinocyte coating matrix (Thermo Fisher Scientific) the day before the actual assay starts. ADCs were formulated at 2× starting concentration in cell culture medium and filtered through SpinX 0.22 micron cellulose acetate filtered 2 mL centrifuge tubes (Corning Costar). Filter sterilized samples were serial diluted (1:3) under sterile conditions and added onto cells in triplicates. Plates were cultured at 37° C. in a CO2 incubator for 120 hours. For cell viability measurement, 10 microliters of WST-8 reagent (VWR) were added into each well and plates were incubated at 37° C. in a CO2 incubator for 4 hours. […] Data was fitted with non-linear regression analysis, using log (inhibitor) vs. response, variable slope, 4-parameter fit equation using GraphPad Prism. Data was expressed as % relative cell viability vs. dose of free linker-warhead or ADC in nanomolar with error bars indicating the Standard Deviation (SD) of the triplicates.

HEK293T = assay: FACS cell-binding assay on parental HEK293T cells; details: Table 16, parental cells
Description: HEK293T, BxPC3 cells (TF positive) and NCI-H1703 (TF negative) cells were obtained from ATCC (American Type Culture Collection) and maintained in DMEM:F12 (1:1), high glucose (Corning) supplemented with 10% heat-inactivated fetal bovine serum (ThermoScientific), 1× Penicillin/Streptomycin (Corning) and 2 mmol glutamax (Thermo Fisher Scientific). To generate cells that stably expressing human tissue factor (HEK293T-humanTF) or cynomolgus tissue factor (HEK293T-cynoTF), HEK293T cells were transfected with plasmid vectors that contain the corresponding protein sequence and stable clones were selected with puromycin.
For a fluorescence-activated cell sorting (FACS) cell-binding assay, cells were collected by Accutase and counted by the Vi-CELL Cell Viability Analyzersharvested and, then re-suspended in FACS buffer (DPBS buffer supplemented with 1% bovine serum albumin). A total of 200,000 cells in 100 μL were incubated on ice with 100 μL of anti-TF antibodies in each well of a 96-well plate. Cells were washed twice with ice-cold FACS buffer and then incubated on ice for 60 mins with 5 μg/mL Alexa 647-labeled donkey anti-human Fc antibody (Jackson ImmunoResearch). Unstained cells and cells stained with secondary antibody alone were used as controls. Cells were washed twice with FACS buffer and analyzed using a BD FACS Canto system. Geometric mean fluorescence intensities (MFI) were fitted using non-linear regression analysis with one site specific binding equation on GraphPad Prism (GraphPad Software; La Jolla, CA).

[2] = tested on: primary human keratinocytes; assay: Cell binding on primary adult human keratinocytes (flow cytometry); details: Table 29, primary human keratinocytes
Description: Since TF is expressed in human skin, anti-TF antibody 2900-A02 and 2842-B01-Hc3/Lc2 were tested in cell binding assay on primary adult human keratinocyte cells purchased from Thermo Fisher Scientific. Keratinocytes were cultured in defined keratinocyte culture medium (EpiLife Medium, Thermo Fisher Scientific) supplemented with growth supplement S7 (S0175 from Thermo Fisher Scientific) and Penicillin/Streptomycin on plates coated with keratinocyte coating matrix (Thermo Fisher Scientific).
To evaluate antibody binding activity of the anti-TF antibodies on the adult primary keratinocytes, a total of 100,000 keratinocytes per well were incubated on ice with serial dilutions of anti-TF antibodies in FACS buffer (PBS buffer supplemented with 1% bovine serum albumin, 0.05% sodium azide) for 60 minutes. Cells were washed twice with ice-cold FACS buffer and then incubated with 5 microgram/mL Alexa 647 labeled donkey anti-human Fc antibody (Jackson ImmunoResearch, West Grove, PA) on ice for another 60 minutes. Unstained cells and cells stained with secondary antibodies alone were used as controls. Samples were then washed twice using FACS buffer and analyzed using an Attune flow cytometer (Thermo Fisher). Geometric mean fluorescence intensities were fitted using non-linear regression analysis with one site specific binding equation on GraphPad Prism.

human TF = target: T1, human TF (Homo sapiens, UniProt P13726); assay: Biacore off-rate and kinetic binding, human TF; details: Table 12; 25° C., 1:1 Langmuir
T1 construct: purchased Lake Pharma
T1 sequence (P13726 33-295): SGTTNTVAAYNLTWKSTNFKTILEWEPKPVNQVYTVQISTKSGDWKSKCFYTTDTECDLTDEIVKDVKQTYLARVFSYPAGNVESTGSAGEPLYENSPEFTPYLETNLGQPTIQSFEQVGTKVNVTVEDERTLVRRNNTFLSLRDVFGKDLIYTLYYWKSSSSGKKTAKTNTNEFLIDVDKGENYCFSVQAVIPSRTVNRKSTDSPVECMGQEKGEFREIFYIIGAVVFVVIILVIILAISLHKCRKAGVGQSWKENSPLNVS
Description: as §1, §2, §3, §4

Chain of cynomolgus TF (as listed by the source): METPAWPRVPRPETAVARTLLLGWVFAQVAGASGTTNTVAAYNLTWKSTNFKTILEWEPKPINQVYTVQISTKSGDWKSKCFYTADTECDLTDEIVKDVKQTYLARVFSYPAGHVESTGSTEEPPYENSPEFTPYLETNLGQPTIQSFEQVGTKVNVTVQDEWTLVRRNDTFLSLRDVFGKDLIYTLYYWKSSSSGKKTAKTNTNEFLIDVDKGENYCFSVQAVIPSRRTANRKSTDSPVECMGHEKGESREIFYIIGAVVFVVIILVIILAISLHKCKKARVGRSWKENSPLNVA

B1: 37 (antibody)
heavy: MEVQLVESGGGLVQPGGSLRLSCAASGFSISSYDMSWVRQAPGKGLEWIGIIGSNGRTYYPDSVKGRFTISRDNSKNTVTLQMNSLRAEDTAVYYCARGLYDGTGNIWGQGTLVTVSSASTKGPSVFPLAPSSKSTSGGTAALGCLVKDYFPEPVTVSWNSGALTSGVHTFPAVLQSSGLSLSSVVTVPSSSLGTQTYICNVNHKPSNTKVDKKVEPKSCDKTHTCPPCPAPELLGGPSVFLFPPKPKDTLMISRTPEVTCVVVDVSHEDPEVKFNWYVDGVEVHNAKTKPREEQYNSTYRVVSVLTVLHQDWLNGKEYKCKVSNKALPAPIEKTISKAKGQPREPQVYTLPPSREEMTKNQVSLTCLVKGFYPSDIAVEWESNGQPENNYKTTPPVLDSDGSFLYSKLTVDKSRWQQGNVFSCSVMHEALHNHYTQKSLSLSPGK
light: MELVMTQSPPTLSLSPGERVTLSCRASQSVYGNNWLSWYQQKPGQAPRLLIYGASKLATSIPARFSGSGSGTQFTLTISSLQPEDFAVYYCQGTYYSGDWYFAFGQGTKVEIKRTVAAPSVFIFPPSDEQLKSGTASVVCLLNNFYPREAKVQWKVDNALQSGNSQESVTEQDSKDSTYSLSSTLTLSKADYEKHKVYACEVTHQGLSSPVTKSFNRGEC
modifications: pAzMeF at Y180/F404; drug conjugate
Biacore cynomolgus TF kinetics ka (cynomolgus TF): 72400 M⁻¹ s⁻¹
Biacore cynomolgus TF kinetics kd (cynomolgus TF): 0.00113 s⁻¹
EC50 [1]: > 100 nM
HEK293T Bmax (MFI) (HEK293T): 1062 MFI
Keratinocyte Binding Bmax [2]: 151831
Biacore human TF kinetics ka (human TF): 57200 M⁻¹ s⁻¹
Biacore human TF kinetics kd (human TF): 0.000418 s⁻¹
